Patent publication US20100227824A1 (SYMTHERA CANADA, published 2010)

T1: Mig (CXCL9) (UniProt Q07325 23-125)
T1 construct: Bought chemokine
T1 sequence (looked up): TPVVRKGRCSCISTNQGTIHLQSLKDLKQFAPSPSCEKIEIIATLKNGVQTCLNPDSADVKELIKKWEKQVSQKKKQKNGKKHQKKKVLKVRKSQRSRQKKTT

T2: GRO-β (CXCL2) (UniProt P19875 35-107)
T2 construct: Bought chemokine
T2 sequence (looked up): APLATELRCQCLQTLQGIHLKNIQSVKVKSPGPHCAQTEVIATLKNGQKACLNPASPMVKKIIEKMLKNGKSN

T3: Eotaxin 2 (CCL24) (UniProt O00175 27-104, limits assumed)
T3 construct: Bought chemokine
T3 sequence (looked up): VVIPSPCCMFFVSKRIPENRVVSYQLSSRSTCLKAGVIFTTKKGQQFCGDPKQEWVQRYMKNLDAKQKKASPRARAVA

T4: TECK (CCL25) (UniProt O15444 24-150)
T4 construct: Bought chemokine
T4 sequence (looked up): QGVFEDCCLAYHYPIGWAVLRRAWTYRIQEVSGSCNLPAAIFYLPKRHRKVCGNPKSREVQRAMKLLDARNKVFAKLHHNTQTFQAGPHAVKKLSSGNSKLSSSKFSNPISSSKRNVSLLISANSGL

T5: Lymphotactin (XCL-1) (UniProt P47992 23-114, limits assumed)
T5 construct: Bought chemokine
T5 sequence (looked up): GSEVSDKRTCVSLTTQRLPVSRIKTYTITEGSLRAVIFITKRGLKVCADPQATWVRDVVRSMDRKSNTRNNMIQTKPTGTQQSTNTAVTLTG

T6: IP-10 (CXCL10) (UniProt P02778 22-98)
T6 construct: Bought chemokine
T6 sequence (looked up): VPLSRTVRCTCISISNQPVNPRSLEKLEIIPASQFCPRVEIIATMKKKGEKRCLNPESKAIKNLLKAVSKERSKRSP

T7: Exodus-2 (CCL21) (UniProt O00585 24-134)
T7 construct: Bought chemokine
T7 sequence (looked up): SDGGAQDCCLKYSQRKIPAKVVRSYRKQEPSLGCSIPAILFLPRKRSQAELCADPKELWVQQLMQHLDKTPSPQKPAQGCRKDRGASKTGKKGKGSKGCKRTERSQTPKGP

T8: MCP-2 (CCL8) (UniProt P80075 24-99)
T8 construct: Bought chemokine
T8 sequence (looked up): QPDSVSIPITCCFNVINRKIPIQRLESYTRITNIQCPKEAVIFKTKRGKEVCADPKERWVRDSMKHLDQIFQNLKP

T9: I-TAC (CXCL11) (UniProt O14625 22-94)
T9 construct: Bought chemokine; also called I-TACK
T9 sequence (looked up): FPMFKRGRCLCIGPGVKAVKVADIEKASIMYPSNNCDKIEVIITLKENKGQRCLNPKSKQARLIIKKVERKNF

T10: Eotaxin 3 (CCL26) (UniProt Q9Y258 24-94)
T10 construct: Bought chemokine
T10 sequence (looked up): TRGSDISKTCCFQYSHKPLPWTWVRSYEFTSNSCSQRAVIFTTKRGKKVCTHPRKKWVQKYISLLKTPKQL

T11: I-309 (CCL1) (UniProt P22362 23-96, limits assumed)
T11 construct: Bought chemokine
T11 sequence (looked up): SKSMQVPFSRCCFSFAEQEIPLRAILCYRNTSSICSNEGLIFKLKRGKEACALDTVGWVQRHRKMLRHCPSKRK

T12: RANTES (CCL5) (UniProt P13501 24-91)
T12 construct: Bought chemokine
T12 sequence (looked up): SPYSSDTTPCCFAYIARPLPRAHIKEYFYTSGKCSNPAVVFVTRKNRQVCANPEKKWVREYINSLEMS

T13: BCA-1 (CXCL13) (UniProt O43927 23-109)
T13 construct: Bought chemokine
T13 sequence (looked up): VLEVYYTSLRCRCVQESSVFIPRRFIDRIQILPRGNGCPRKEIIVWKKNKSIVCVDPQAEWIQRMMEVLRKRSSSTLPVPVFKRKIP


biological target: T14, Eotaxin (CCL11) (UniProt P51671 24-97); assay: micro-array, phage-presented peptide on printed CK
T14 construct: Bought chemokine
Description: (§1) (1) Printing: Chemokine (CK) solution (in water) was serially diluted with Print Reagent (GenTel BioSurfaces USA) to final concentrations of 50 μg and 25 μg/ml. BSA/BSA-Biotin control solutions (in water) were diluted with Print Reagent to 100 μg/ml. Amplified stock of M13 phage control (M13KEgIII Cloning Vector, New England Biolabs, Cat.No.E8101S) was stored in Tris Buffered Saline (TBS; pH7.5, 4° C.) and diluted with Print Reagent to the working titre (10^8 pfu/μl). An automated spotting robot (16 pin print tool, 0.4mm head; BioRobotics, UK) was used to print the CK/BSA control/M13 control, 5 repeats per sample (CK 25 μg/ml and 50 μg/ml; BSA 100 μg/ml; M13 20 μl), on PATH Protein Microarray Slides (GenTel, Prod.No.2-1005/-1025) at […], and 50-70% relative humidity. Printed micro-array slides were stored at Room Temperature (RT) or 4° C. for at least 24 h before use.
(§2) (2) Blocking: Block Buffer (500 μl/partition; PATHblock, GenTel, Prod.No.2-1014) was applied to the slide for 1 hour at room temp (RT). After removal of Block Buffer, the slide was air dried for 25 minutes;
(§3) (11) Analysis: Quantitative analysis of micro-array was performed by the SpotReader program of Niles Scientific (USA) and presented as Relative Fluorescence (RF) as a function of CK concentration. Micro-array readout (Cy3 fluorescence) was quantified to determine the relative binding affinities of a CBP for the CKs and by inference, the specificity of the CBP for binding to a CK.

T14 sequence (P51671 24-97 limits assumed): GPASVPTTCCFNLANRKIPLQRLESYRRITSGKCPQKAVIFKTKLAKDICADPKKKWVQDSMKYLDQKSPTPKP

Binder | binding result
SYYDDVGL [Phage-Presented Peptide 27 (Ph-p27)] | binds
WVFGAAACK [Phage-Presented Peptide 8.6 (Ph-p8.6)] | binds
WVFGSGLCK [Phage-Presented Peptide 15 (Ph-p15)] | binds
WVFG [Phage-Presented Peptide 8.4 (Ph-p8.4)] | binds

biological target: T1, Mig (CXCL9); assay: micro-array, phage-presented peptide on printed CK
Description: as §1, §2, §3

Binder | Relative Fluorescence Units (RFU) | binding result
SYYDDVGL [Phage-Presented Peptide 27 (Ph-p27)] | > 15000 RFU | 
WVFGAAACK [Phage-Presented Peptide 8.6 (Ph-p8.6)] |  | binds
WVFGSGLCK [Phage-Presented Peptide 15 (Ph-p15)] | > 15000 RFU | 
WVFG [Phage-Presented Peptide 8.4 (Ph-p8.4)] |  | binds

biological target: T2, GRO-β (CXCL2); assay: micro-array, phage-presented peptide on printed CK
Description: as §1, §2, §3

Binder | binding result
SYYDDVGL [Phage-Presented Peptide 27 (Ph-p27)] | binds
WVFGSGLCK [Phage-Presented Peptide 15 (Ph-p15)] | binds

biological target: T15, MCP-1 (CCL2) (UniProt P13500 24-99); assay: micro-array, phage-presented peptide on printed CK
T15 construct: Bought chemokine
Description: as §1, §2, §3

T15 sequence (P13500 24-99 limits assumed): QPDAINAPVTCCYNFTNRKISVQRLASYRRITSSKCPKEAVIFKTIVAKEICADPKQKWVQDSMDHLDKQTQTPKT

Binder | binding result | Relative Fluorescence Units (RFU)
SYYDDVGL [Phage-Presented Peptide 27 (Ph-p27)] | binds | 
WVFGAAACK [Phage-Presented Peptide 8.6 (Ph-p8.6)] |  | > 15000 RFU
WVFGSGLCK [Phage-Presented Peptide 15 (Ph-p15)] | binds | 

biological target: T3, Eotaxin 2 (CCL24); assay: micro-array, phage-presented peptide on printed CK
Description: as §1, §2, §3

Binder | binding result
SYYDDVGL [Phage-Presented Peptide 27 (Ph-p27)] | binds
WVFGAAACK [Phage-Presented Peptide 8.6 (Ph-p8.6)] | binds
WVFGSGLCK [Phage-Presented Peptide 15 (Ph-p15)] | binds

biological target: T4, TECK (CCL25); assay: micro-array, phage-presented peptide on printed CK
Description: as §1, §2, §3

Binder | Relative Fluorescence Units (RFU) | binding result
GNAMCK [Phage-Presented Peptide 8.1 (Ph-p8.1)] | > 15000 RFU | 
SYYDDVGL [Phage-Presented Peptide 27 (Ph-p27)] |  | binds
WVFGAAACK [Phage-Presented Peptide 8.6 (Ph-p8.6)] |  | binds
WVFGSGLCK [Phage-Presented Peptide 15 (Ph-p15)] |  | binds
WVFG [Phage-Presented Peptide 8.4 (Ph-p8.4)] |  | binds

biological target: T5, Lymphotactin (XCL-1); assay: micro-array, phage-presented peptide on printed CK
Description: as §1, §2, §3

Binder | Relative Fluorescence Units (RFU) | binding result
GNAMCK [Phage-Presented Peptide 8.1 (Ph-p8.1)] | > 15000 RFU | 
SYYDDVGL [Phage-Presented Peptide 27 (Ph-p27)] |  | binds
WVFGAAACK [Phage-Presented Peptide 8.6 (Ph-p8.6)] |  | binds
WVFGSGLCK [Phage-Presented Peptide 15 (Ph-p15)] |  | binds
WVFG [Phage-Presented Peptide 8.4 (Ph-p8.4)] |  | binds

biological target: T6, IP-10 (CXCL10); assay: micro-array, phage-presented peptide on printed CK
Description: as §1, §2, §3

Binder | binding result | Relative Fluorescence Units (RFU)
WVFGAAACK [Phage-Presented Peptide 8.6 (Ph-p8.6)] | binds | 
WVFGSGLCK [Phage-Presented Peptide 15 (Ph-p15)] |  | > 15000 RFU
WVFG [Phage-Presented Peptide 8.4 (Ph-p8.4)] | binds | 

biological target: T16, SDF-1α (CXCL12) (UniProt P48061-2 22-89); assay: micro-array, phage-presented peptide on printed CK
T16 construct: Alpha isoform of CXCL12; also called SDFα
Description: as §1, §2, §3

T16 sequence (P48061 22-89 limits assumed): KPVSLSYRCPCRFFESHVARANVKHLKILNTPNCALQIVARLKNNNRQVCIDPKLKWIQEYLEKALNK

Binder | binding result
WVFGAAACK [Phage-Presented Peptide 8.6 (Ph-p8.6)] | binds

biological target: T7, Exodus-2 (CCL21); assay: micro-array, phage-presented peptide on printed CK
Description: as §1, §2, §3

Binder | binding result
SYYDDVGL [Phage-Presented Peptide 27 (Ph-p27)] | binds
WVFGAAACK [Phage-Presented Peptide 8.6 (Ph-p8.6)] | binds
WVFGSGLCK [Phage-Presented Peptide 15 (Ph-p15)] | binds

biological target: T8, MCP-2 (CCL8); assay: micro-array, phage-presented peptide on printed CK
Description: as §1, §2, §3

Binder | Relative Fluorescence Units (RFU) | binding result
WVFGNAMCK (also called Ph-p28; Ph-p 8) [Phage Presented (Ph) Peptide (p) 8] | > 25000 RFU | 
SYYDDVGL [Phage-Presented Peptide 27 (Ph-p27)] |  | binds
WVFGAAACK [Phage-Presented Peptide 8.6 (Ph-p8.6)] | > 15000 RFU | 
WVFGSGLCK [Phage-Presented Peptide 15 (Ph-p15)] |  | binds
WVFG [Phage-Presented Peptide 8.4 (Ph-p8.4)] | > 15000 RFU | 

biological target: T9, I-TAC (CXCL11); assay: micro-array, phage-presented peptide on printed CK
Description: as §1, §2, §3

Binder | Relative Fluorescence Units (RFU) | binding result
SYYDDVGL [Phage-Presented Peptide 27 (Ph-p27)] | > 15000 RFU | 
WVFGAAACK [Phage-Presented Peptide 8.6 (Ph-p8.6)] |  | binds
WVFGSGLCK [Phage-Presented Peptide 15 (Ph-p15)] | > 15000 RFU | 
WVFG [Phage-Presented Peptide 8.4 (Ph-p8.4)] |  | binds

biological target: T17, MCP-4 (CCL13) (UniProt Q99616 24-98); assay: micro-array, phage-presented peptide on printed CK
T17 construct: Bought chemokine
Description: as §1, §2, §3

T17 sequence (Q99616 24-98 limits assumed): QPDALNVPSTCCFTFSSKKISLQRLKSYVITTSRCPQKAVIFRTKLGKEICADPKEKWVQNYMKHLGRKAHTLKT

Binder | Relative Fluorescence Units (RFU) | binding result
WVFGNAMCK (also called Ph-p28; Ph-p 8) [Phage Presented (Ph) Peptide (p) 8] | > 25000 RFU | 
SYYDDVGL [Phage-Presented Peptide 27 (Ph-p27)] |  | binds
WVFGAAACK [Phage-Presented Peptide 8.6 (Ph-p8.6)] | > 15000 RFU | 
WVFGSGLCK [Phage-Presented Peptide 15 (Ph-p15)] |  | binds
WVFG [Phage-Presented Peptide 8.4 (Ph-p8.4)] | > 15000 RFU | 

biological target: T10, Eotaxin 3 (CCL26); assay: micro-array, phage-presented peptide on printed CK
Description: as §1, §2, §3

Binder | Relative Fluorescence Units (RFU) | binding result
GNAMCK [Phage-Presented Peptide 8.1 (Ph-p8.1)] | > 15000 RFU | 
SYYDDVGL [Phage-Presented Peptide 27 (Ph-p27)] |  | binds
WVFGAAACK [Phage-Presented Peptide 8.6 (Ph-p8.6)] |  | binds
WVFGSGLCK [Phage-Presented Peptide 15 (Ph-p15)] |  | binds
WVFG [Phage-Presented Peptide 8.4 (Ph-p8.4)] |  | binds

biological target: T11, I-309 (CCL1); assay: micro-array, phage-presented peptide on printed CK
Description: as §1, §2, §3

Binder | binding result
WVFGAAACK [Phage-Presented Peptide 8.6 (Ph-p8.6)] | binds
WVFG [Phage-Presented Peptide 8.4 (Ph-p8.4)] | binds

biological target: T12, RANTES (CCL5); assay: micro-array, phage-presented peptide on printed CK
Description: as §1, §2, §3

Binder | binding result
SYYDDVGL [Phage-Presented Peptide 27 (Ph-p27)] | binds
WVFGSGLCK [Phage-Presented Peptide 15 (Ph-p15)] | binds

biological target: T18, SDF-1β (CXCL12) (UniProt P48061 22-93); assay: micro-array, phage-presented peptide on printed CK
T18 construct: Beta isoform of CXCL12; also called SDFβ
Description: as §1, §2, §3

T18 sequence (P48061 22-93 limits assumed): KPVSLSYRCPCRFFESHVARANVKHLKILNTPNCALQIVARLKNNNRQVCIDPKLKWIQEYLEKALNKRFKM

Binder | binding result
WVFGAAACK [Phage-Presented Peptide 8.6 (Ph-p8.6)] | binds

biological target: T13, BCA-1 (CXCL13); assay: micro-array, phage-presented peptide on printed CK
Description: as §1, §2, §3

Binder | Relative Fluorescence Units (RFU) | binding result
GNAMCK [Phage-Presented Peptide 8.1 (Ph-p8.1)] | > 15000 RFU | 
SYYDDVGL [Phage-Presented Peptide 27 (Ph-p27)] |  | binds
WVFGAAACK [Phage-Presented Peptide 8.6 (Ph-p8.6)] |  | binds
WVFGSGLCK [Phage-Presented Peptide 15 (Ph-p15)] |  | binds
WVFG [Phage-Presented Peptide 8.4 (Ph-p8.4)] |  | binds
